± gives the standard deviation.
Assay: protein stability index of a GFP-peptide fusion (GPS, HEK-293T) (PSI 1-6); higher = more stable
[1] = treatment: DMSO, c terminus: a fixed tail appended
[2] = treatment: MLN4924 1 uM, 8 h, c terminus: a fixed tail appended
[3] = treatment: DMSO, c terminus: native
[4] = treatment: MLN4924 1 uM, 8 h, c terminus: native
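Further: 24-mer peptide tiles fused after GFP, lentivirally expressed, FACS-sorted into six equal bins by GFP/DsRed ratio, decoded by Illumina sequencing, PSI is the read-weighted mean bin number.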

| Sequence | protein stability index [1] | protein stability index [2] | protein stability index [3] | protein stability index [4] |
| --- | --- | --- | --- | --- |
| NSSPRVMQRKQSLGKPDQKDLNEN [DLC1] | 5.09 ± 0.18 | 4.88 ± 0.28 |  |  |
| TVSSPIPYTPSPSSSRPISPGLSY [CCDC6] | 3.58 ± 0.1 | 3.61 ± 0.45 |  |  |
| KASLWQFLSSEKQICGTHRQTKKM [TRIM43] | 2.63 ± 0.27 | 2.71 ± 0.24 |  |  |
| QALQKEKETLAVNYEKEEEFLTNE [CCDC6] | 5.39 ± 0.15 | 5.3 ± 0.24 |  |  |
| AEPGALGEPGAAAPAMYDDESAID [CEBPD] | 5.6 ± 0.57 | 5.77 ± 0.21 |  |  |
| GLDGYRGYSLADWVCLAYFTSGFN [SPACA3] | 3.1 ± 1.2 | 2.81 ± 0.7 |  |  |
| SDVNDNAPRFNQQLYTAYILENRP [PCDHGC5] | 2.87 ± 0.26 | 3.1 ± 0.31 |  |  |
| EGHSPGNLPKFCHECGTKYPVEWA [ZC2HC1A] | 2.91 ± 0.25 | 2.97 ± 0.28 |  |  |
| RLEPLEHRRRTICGTPNYLSPEVL [PLK2] | 3.55 ± 0.19 | 3.67 ± 0.1 |  |  |
| RLCRLAGASSPAAYDEALAELHAH [ZSWIM9] | 3.29 ± 0.36 | 3.33 ± 0.2 |  |  |
| DKDENKLSEASGGRAENGERSDLE [ZC3H15] | 5.45 ± 0.24 | 5.45 ± 0.28 |  |  |
| AVGVLLLGLVGYYIFRVANHQKDL [DHCR7] | 2.84 ± 0.29 | 2.79 ± 0.53 |  |  |
| LPDNFTLKEDGMETVPWFPKKISD [TPH1] | 4.4 ± 0.19 | 4.3 ± 0.12 |  |  |
| AENSPYLNPQLVQPAKKPLLWSDP [ESRRG] | 3.9 ± 0.25 | 3.81 ± 0.23 |  |  |
| RLSKELLAEYQDLTFLTKQEILLA [CIB1] | 2.16 ± 0.17 | 2.11 ± 0.22 |  |  |
| NLPSGGKGFKLRRQPSEPKRSCC [RAB22A] |  |  | 3.89 ± 0.34 | 4 ± 0.35 |
| ARFVSSGSGGGYGGGMRVCGFGGG [KRT15] | 2.63 ± 0.31 | 2.74 ± 0.25 |  |  |
| RIKGVEVFCPLDPPPPYEAVVSQM [FAM189A2] | 2.83 ± 0.33 | 2.88 ± 0.22 |  |  |
| AKMAGIGIREASSGGGGSSSNFHI [KRT15] | 3.16 ± 0.4 | 3.14 ± 0.27 |  |  |
| FVSKIRAVINDIANLPVPTIAAID [AUH] | 2.42 ± 1.6 | 2.04 ± 0.54 |  |  |
| LQNMGLLLDKLAKENQDIRLLQAQ [PBXIP1] | 2.82 ± 0.2 | 2.93 ± 0.35 |  |  |
| VYAGRPLSVIQMVAFLEQRASALL [FBXO34] | 1.98 ± 0.39 | 2.29 ± 0.35 |  |  |
| AQNNCPAIMNALIEAGAHMDATNA [FEM1A] | 4.46 ± 0.23 | 4.49 ± 0.079 |  |  |

| Sequence | protein stability index [1] | protein stability index [2] | protein stability index [3] | protein stability index [4] |
| --- | --- | --- | --- | --- |
| SSKFYDLFLMDLSEGELGGPSEPG [RHOBTB2] | 3.19 ± 0.2 | 3.25 ± 0.34 |  |  |
| QYSGMLDCARRILAREGVAAFYKG [SLC25A25] | 2.38 ± 0.34 | 2.23 ± 0.055 |  |  |
| EEEEEEEDEDDDSADMDESDEDDE [FBXO3] | 5.37 ± 0.12 | 5.38 ± 0.15 |  |  |
| KAKRRNQEMQQKLVELSAENEKLH [CEBPD] | 4.97 ± 0.67 | 4.8 ± 0.097 |  |  |
| QKEQQERLREAAALGDIREVQKLV [ANKRD40] | 4.67 ± 0.25 | 4.74 ± 0.25 |  |  |
| KNSTMVNSEDIFLLLCLKVDNHFN [TRIM43] | 2.98 ± 0.57 | 2.84 ± 0.51 |  |  |
| ELHQVAERVEALGQFVMKTRRTLK [GNB5] | 2.87 ± 0.12 | 3.1 ± 0.3 |  |  |
| YSFRKLPDTQLLKFQLNKYTGEIK [PCDHGA10] | 2.39 ± 0.37 | 2.54 ± 0.3 |  |  |
| YQPAPYFAAEARYPIYVIPEPPPV [TENT5D] | 2.02 ± 0.18 | 2.35 ± 0.55 |  |  |
| GSDLGGPLPTDPMLGLALGGLVVS [TSPAN10] | 2.88 ± 0.2 | 2.66 ± 0.19 |  |  |
| TGELVGPFVSAMPTPMPHNKGTRF [ZBED2] | 3.64 ± 0.11 | 3.79 ± 0.23 |  |  |
| DISETFNHANGLTLVSRAHQLVME [PPP2CA] | 2.79 ± 0.12 | 2.82 ± 0.29 |  |  |
| AEGPNRLLYKDGFSTILHLLLGSP [LPCAT4] | 2.23 ± 0.98 | 2.08 ± 0.29 |  |  |
| KPPPRKHTRSWAVLKLLLLLLLFG [LRRC59] | 2.09 ± 0.3 | 2.02 ± 0.26 |  |  |
| LDQKKQDPRVQDFLQRCLESPFSR [NET1] | 3.51 ± 0.18 | 3.55 ± 0.44 |  |  |
| RAVRDRNLLRDDRVLQNLLTIEER [CCND2] | 3.91 ± 0.21 | 3.89 ± 0.17 |  |  |
| NQGTQITVEDLFYNIATRRKALKN [MLH1] | 3.29 ± 0.32 | 3.37 ± 0.48 |  |  |
| LTPSSKEMMSQALKATFSGFTKEQ [ETS1] | 3.87 ± 0.24 | 3.74 ± 0.19 |  |  |
| REIALAKKHGTQNKRAALQALKRK [CHMP4C] | 4.04 ± 0.14 | 4.29 ± 0.39 |  |  |
| FPREHQFFEDGDVQRHLYLQDVIM [ZNF511] | 2.45 ± 0.085 | 2.78 ± 0.28 |  |  |
| RVIMIVTDGRPQDSVAEVAAKARD [MATN2] | 3.165 ± 0.024 | 2.76 ± 0.6 |  |  |
| VLSESSGPSNTSHSSSRDSHLSNG [C2CD2L] | 4.96 ± 0.28 | 5 ± 0.13 |  |  |
| NPNGGSFEEVLSSTAHASAQSLAG [TPD52L1] | 4.76 ± 0.12 | 4.9 ± 0.11 |  |  |

| Sequence | protein stability index [1] | protein stability index [2] | protein stability index [3] | protein stability index [4] |
| --- | --- | --- | --- | --- |
| KSHVYMAWNIPMSNPGVDFGDVSE [GALNT9] | 2.65 ± 0.26 | 2.79 ± 0.15 |  |  |
| SNDNEERLQVVKLLAKMFGAKDSE [PDS5B] | 3.17 ± 0.3 | 3.12 ± 0.4 |  |  |
| AESSVPPVTSIGIDNLGLKLEENL [SLC35F2] | 4.97 ± 0.2 | 5.13 ± 0.13 |  |  |
| LHQETQLIHVYLPLTSHILRAFVN [SNX8] | 3.06 ± 0.67 | 2.86 ± 0.48 |  |  |
| KSKAYTVVGTPCYISPELCEGKPY [NEK8] | 2.83 ± 0.084 | 3.03 ± 0.27 |  |  |
| GFYFEVCGMMVESVNAKTLMSRI [PCDHGA10] |  |  | 2.81 ± 0.26 | 2.41 ± 1 |
| PKARKQGVSPADMYRWKLSSHEPC [ADAMTSL2] | 2.94 ± 0.27 | 3.25 ± 0.14 |  |  |
| YDVEMTDELVGLPFSSHTYSQASE [FBXO34] | 4.52 ± 0.32 | 4.52 ± 0.23 |  |  |
| SPEWDTVTPEAKDLINKMLTINPA [CAMK2D] | 4.24 ± 0.42 | 4.54 ± 0.12 |  |  |
| EGAQLGENKPSTCSFSIERILGLD [HESX1] | 2.92 ± 0.18 | 3.11 ± 0.1 |  |  |
| SVAEGYYSHRETVNGSWYIQDLCE [CASP6] | 3.23 ± 0.22 | 3.11 ± 0.35 |  |  |
| SAVLFYVNMYVSIVFFGLISFDRY [P2RY14] | 3.04 ± 0.35 | 3.22 ± 0.36 |  |  |
| RFLLKETLNQLQSLQNSLECAMET [NECAB1] | 2.29 ± 0.4 | 2.31 ± 0.41 |  |  |
| SPKELKRRNSSSSMSSRLSIYDNV [DLC1] | 3.92 ± 0.32 | 3.94 ± 0.39 |  |  |
| GKAVVSHSKGHKSSRQEKRPLCAQ [ELOA2] | 4.61 ± 0.29 | 4.64 ± 0.44 |  |  |
| MAEGDNRSTNLLAAETASLEEQLQ [ARL6IP1] | 5.37 ± 0.31 | 5.43 ± 0.17 |  |  |
| MLHHHCRRNPELQEELQIQAAVAA [ASB7] | 3.47 ± 0.29 | 3.59 ± 0.26 |  |  |
| ELGSESQGASESQAPGEENLLGEA [HDAC6] | 5.63 ± 0.29 | 5.54 ± 0.12 |  |  |
| QLGLGRGASTFKEEPQTVPEARSR [JUNB] | 5.04 ± 0.1 | 5.22 ± 0.26 |  |  |
| LEPVKKSRLQLLGATCMFVASKMK [CCND1] | 2.23 ± 0.16 | 2.12 ± 0.41 |  |  |
| ETLSITNCRLSEGDVMHLSQSPSV [PRAME] | 3.2 ± 0.66 | 3.22 ± 0.77 |  |  |
| SEGTNLNAPNSLGVSALCAICGDR [HNF4A] | 3.88 ± 0.28 | 4.13 ± 0.26 |  |  |
| DVNKTDHSQRTALHLAAQKALRTI [INVS] | 3.06 ± 0.42 | 3.44 ± 0.43 |  |  |

| Sequence | protein stability index [1] | protein stability index [2] | protein stability index [3] | protein stability index [4] |
| --- | --- | --- | --- | --- |
| QASPYHPGSCGAGAPSPGSSDVST [ELF3] | 4.57 ± 0.16 | 4.52 ± 0.43 |  |  |
| SKLCTSYSHSSTRDGRRDRYSSDT [GOSR1] | 4.32 ± 0.25 | 4.18 ± 0.16 |  |  |
| DPPSSSEECPAHLLEDPLCADVIL [RHOBTB2] | 4.89 ± 0.21 | 5.11 ± 0.23 |  |  |
| ASSSPVTLRQKTVDWRRVSRLQED [SLA] | 3.9 ± 0.36 | 3.77 ± 0.32 |  |  |
| VAWNGPRMGDADYLAAWHRLVLPI [HDAC6] | 2.52 ± 0.52 | 2.26 ± 0.25 |  |  |
| AKGGSRLCTPEGWFSCQGPFDMDS [DFFB] | 3.01 ± 0.3 | 3.1 ± 0.27 |  |  |
| EENIMKSNIDKKFSAHYDAVEAEL [FAM50A] | 4.98 ± 0.19 | 5.08 ± 0.083 |  |  |
| APGTGPAQTELLCCLVKMESLEPD [FANCE] | 3.28 ± 0.23 | 3.39 ± 0.12 |  |  |
| PRNSDMKNQGEENGFPDSTGDPLP [EDARADD] | 5.53 ± 0.26 | 5.36 ± 0.13 |  |  |
| GDRLNVEVDAAPPVDLNKILEDMR [KRT36] | 4.24 ± 0.4 | 4.323 ± 0.035 |  |  |
| ESAFKLSTGTSRWPSAKSAGWTLA [SCNN1D] | 2.46 ± 0.21 | 3.03 ± 0.17 |  |  |
| HNTTEAPGPHSAKQDSYEQGDSSQ [ZC2HC1C] | 5.45 ± 0.29 | 5.46 ± 0.32 |  |  |
| IPAVSISYVVYENLKITLGVQSR [SLC25A25] |  |  | 3.19 ± 0.32 | 3.18 ± 0.36 |
| EDSLGCLTADTKEVTASQEARGLR [IRX6] | 5.34 ± 0.25 | 5.3 ± 0.27 |  |  |
| EISAYRKLLQGEEERLKLSPSPSS [LMNB1] | 3.78 ± 0.37 | 4.16 ± 0.61 |  |  |
| KVFLHERELWLKFHEVGTEMIITK [TBX5] | 2.12 ± 0.19 | 2.33 ± 0.44 |  |  |
| TCLMMDMKACQEDDVRLLCHLTPS [INTS3] | 2.69 ± 0.17 | 2.73 ± 0.33 |  |  |
| SNKYGFGYQLSDHTVGVLFNNGAH [PLK2] | 2.61 ± 0.41 | 2.58 ± 0.5 |  |  |
| DDAVAGDFALINKLDIQCDLKTLS [ATE1] | 4.18 ± 0.34 | 4 ± 0.17 |  |  |
| KRITAHEALKHPWVCQRSTVASMM [CAMK2B] | 2.5 ± 0.39 | 2.51 ± 0.26 |  |  |

Source: the supplement of paper PMC10567573
